Laboratory results published in US20080014583.

Assays:
[1] = tested on: T1, COP1-interaction-defective VPmt mutant Flag-TRB3
T1 sequence: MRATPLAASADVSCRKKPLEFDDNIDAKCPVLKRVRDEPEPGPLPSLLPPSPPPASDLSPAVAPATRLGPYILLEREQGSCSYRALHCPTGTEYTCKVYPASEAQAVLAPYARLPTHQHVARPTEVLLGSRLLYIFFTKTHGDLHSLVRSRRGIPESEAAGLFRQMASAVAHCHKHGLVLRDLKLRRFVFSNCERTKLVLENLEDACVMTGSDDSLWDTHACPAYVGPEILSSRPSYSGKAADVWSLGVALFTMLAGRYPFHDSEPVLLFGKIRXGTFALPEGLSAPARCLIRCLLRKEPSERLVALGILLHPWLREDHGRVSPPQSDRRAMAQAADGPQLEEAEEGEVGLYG

Flag-tagged TRB3 = tested on: T2, Flag-tagged TRB3
T2 sequence: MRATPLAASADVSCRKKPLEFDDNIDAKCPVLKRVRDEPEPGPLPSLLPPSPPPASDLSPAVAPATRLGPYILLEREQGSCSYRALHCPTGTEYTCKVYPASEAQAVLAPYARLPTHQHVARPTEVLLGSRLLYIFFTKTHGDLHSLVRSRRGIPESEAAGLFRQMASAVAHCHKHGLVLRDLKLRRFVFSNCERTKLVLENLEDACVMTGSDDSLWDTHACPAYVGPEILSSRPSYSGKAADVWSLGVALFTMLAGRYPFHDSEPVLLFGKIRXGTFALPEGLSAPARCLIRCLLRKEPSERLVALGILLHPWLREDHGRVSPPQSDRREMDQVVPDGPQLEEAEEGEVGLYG

For “HA-tagged COP1 (Constitutive Photomorphogenic Protein 1)”, the “degradation of TRB3 protein after removal of MG132” value [1] was “COP1+DET1 promoted degradation of wild-type but not VPmt TRB3 protein”, the “ubiquitination of TRB3, MS analysis” value [1] was “COP1 promotes ubiquitination of wild-type but not COP1-interaction defective (VPmt) TRB3 at 3 major sites” and the “degradation of TRB3 protein after removal of MG132” value (Flag-tagged TRB3) was “COP1+DET1 promoted degradation of wild-type but not VPmt TRB3 protein”. The “ubiquitination of TRB3, MS analysis” value (Flag-tagged TRB3) was “COP1 promotes ubiquitination of wild-type but not COP1-interaction defective (VPmt) TRB3 at 3 major sites”.
